Patent US12129294B2, “Methods of treatment of diseases in which IL-13 activity is detrimental using anti-IL-13 antibodies” (AbbVie Inc., priority 2016, dated 2024)
Several values for one entry are separate records, joined by “and”; a condition that tells them apart may be missing. Equal entries are not always repeated. Entries after “also recorded” stand apart in the source; their conditions may differ.

Columns and labels:
[1] = tested on: subjects with symptomatic eosinophilic esophagitis (EoE); experiment: Phase 2 study in EoE patients: mean esophageal eosinophil count in the 5 most inflamed HPF of esophageal biopsies; type: in vivo, human; conditions: for mean esophageal eosinophil count (EEOC Mean BL): baseline; for mean change from baseline in mean esophageal eosinophil count: baseline to week 16; for mean esophageal eosinophil count (EEOC Mean post): post treatment (week 16)
Text: (§1) Safety was monitored throughout the study. […] The study was powered for the primary endpoint.
Additionally, various safety and tolerability endpoints are also measurable.
(§2) To maximize consistency, biopsies were obtained from proximal and distal esophagus (i.e., 4 biopsy fragments from each level) at screening. Additional biopsies from mid-esophagus was encouraged and effort was made to obtain subsequent biopsies from the same levels. The biopsies were blinded and read by single central pathologist. To be eligible for trial, subjects were evaluated for peak eosinophil count of ≥15/HPF, from 2 of 3 (proximal, mid-, and/or distal) levels of the esophagus at the screening endoscopy.

[2] = tested on: subjects with symptomatic eosinophilic esophagitis (EoE); experiment: Phase 2 study in EoE patients: peak esophageal eosinophil count; type: in vivo, human; conditions: for peak esophageal eosinophil count, Mean change / peak esophageal eosinophil count, LSMD versus placebo: Change to Week 16; for peak esophageal eosinophil count, LSMD versus placebo: ANCOVA
Text: as §2, with “North America and Switzerland. […] Safety was monitored throughout the study. […] The study was powered for the primary endpoint. […] To maximize” for “To maximize”, “screening endoscopy. Next, the effectiveness of RPC4046 (over placebo) in lowering peak esophageal eosinophil count in EoE subjects at week 16 was analyzed.” for “screening endoscopy.”

[3] = tested on: subjects with symptomatic eosinophilic esophagitis (EoE); experiment: Phase 2 study in EoE patients: EEsAI PRO score; type: in vivo, human; set-up: EEsAI PRO score, Mean / EEsAI PRO score, Median: scale not given here; conditions: for EEsAI PRO score, Mean change / EEsAI PRO score, LSMD versus placebo: Change to Week 16
Procedure: Additionally, a comparison of the mean EEsAI PRO scores at baseline and at week 16 between the placebo group and the treatment group was conducted.

[4] = tested on: subjects with symptomatic eosinophilic esophagitis (EoE); experiment: Phase 2 study in EoE patients: subject's global assessment of disease severity; type: in vivo, human; conditions: for subject's global assessment of disease severity, Mean change / subject's global assessment of disease severity, LSMD versus placebo: Change to Week 16; for subject's global assessment of disease severity, LSMD versus placebo: ANCOVA
Procedure: North America and Switzerland. […] Safety was monitored throughout the study. […] The study was powered for the primary endpoint. […] Still further, the effectiveness of RPC4046 (over placebo) in lowering a subject's global assessment of disease severity at week 16 was analyzed.

[5] = tested on: subjects with symptomatic eosinophilic esophagitis (EoE); experiment: Phase 2 study in EoE patients: EoE endoscopic reference score (EREF); type: in vivo, human; conditions: treatment with RPC4046
Procedure: as §1
In further analysis, the mean eosinophilic esophagitis endoscopic reference score (EREF) in subjects at week 16 was analyzed for placebo and the two treatment arms. The EREF score is an additional secondary endpoint that is evaluated based on the presence of inflammatory markers (e.g., being positive for edema, exudates and/or furrows) and/or remodeling markers (e.g., being positive for fixed rings and/or strictures).
The results of the EREF study was further inspected by analyzing composite EREF score for inflammatory markers or remodeling markers.

[6] = molecular target: human type IL-13 (Homo sapiens, UniProt P35225, Q144R); experiment: Binding of the antibody to IL-13
Chain of human type IL-13 (P35225 15-146 Q144R limits assumed): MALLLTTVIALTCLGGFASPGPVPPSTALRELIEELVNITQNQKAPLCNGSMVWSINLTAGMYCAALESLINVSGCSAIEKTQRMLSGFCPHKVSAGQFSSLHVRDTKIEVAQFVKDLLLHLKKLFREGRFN

[7] = tested on: subjects with symptomatic eosinophilic esophagitis (EoE); experiment: Phase 2 study in EoE patients: safety, treatment-emergent adverse events (TEAE)
Procedure: A double-blind, placebo-controlled, dose-finding study was conducted at 40 canters in North America and Switzerland. Patients with EoE (n=100, aged 18-65) were randomized to 180 mg (low dose; LD) or 360 mg (high dose; HD) RPC4046 or PBO (1:1:1) in a Day 1 intravenous loading dose, followed by weekly subcutaneous doses for 15 weeks. […] Safety was monitored throughout the study.
Additionally, various safety and tolerability endpoints are also measurable. Safety and tolerability parameters are evaluated by the incidence, severity, and relationship of adverse events (AEs), serious AEs (SAEs), clinical laboratory abnormalities, changes in vital signs, physical examination abnormalities, and the presence of anti-drug antibodies.

[8] = 180 mg (N = 31), safety population
[9] = 360 mg (N = 34), safety population

B1: RPC4046: recombinant humanized, high-affinity, selective anti-IL-13 monoclonal antibody; heavy chain variable region SEQ ID NO: 2, light chain variable region SEQ ID NO: 3 (antibody, V domains shown)
VH: EVTLRESGPGLVKPTQTLTLTCTLYGFSLSTSDMGVDWIRQPPGKGLEWLAHIWWDDVKRYNPALKSRLTISKDTSKNQVVLKLTSVDPVDTATYYCARTVSSGYIYYAMDYWGQGTLVTVSS
VL: DIQMTQSPSSLSASVGDRVTISCRASQDIRNYLNWYQQKPGKAPKLLIFYTSKLHSGVPSRFSGSGSGTDYTLTISSLQPEDIATYYCQQGNTLPLTFGGGTKVEIK
With B1 the “mean esophageal eosinophil count (EEOC Mean BL)” value ([1]; 180 mg (LD)) was 116.6 cells/hpf and 116.7 cells/hpf, the “mean change from baseline in mean esophageal eosinophil count” value ([1]; 180 mg (LD)) was −94.8 cells/hpf and the “mean esophageal eosinophil count (EEOC Mean post)” value ([1]; 180 mg) was 24.8 cells/hpf. For the same molecule, the “mean esophageal eosinophil count (EEOC Mean BL)” value ([1]; 360 mg (HD)) was 122.6 cells/hpf, the “mean change from baseline in mean esophageal eosinophil count” value ([1]; 360 mg (HD)) was −99.9 cells/hpf and the “mean esophageal eosinophil count (EEOC Mean post)” value ([1]; 360 mg) was 25.5 cells/hpf. For the same molecule, the “mean esophageal eosinophil count at week 16 compared to the controls” value ([1]; both low dose (180 mg) and high dose (360 mg)) was “statistically significant reduction”, the “peak esophageal eosinophil count, Mean” value ([2]; 180 mg, Baseline) was 131.9 cells/hpf and the “peak esophageal eosinophil count, Median” value ([2]; 180 mg, Baseline) was 113.0 cells/hpf. For the same molecule, the “peak esophageal eosinophil count, Mean change” value ([2]; 180 mg) was −106.6 cells/hpf, the “peak esophageal eosinophil count, LSMD versus placebo” value ([2]; 180 mg) was −80.6 cells/hpf and the “peak esophageal eosinophil count, Mean” value ([2]; 180 mg, Week 16) was 28.9 cells/hpf. For the same molecule, the “peak esophageal eosinophil count, Median” value ([2]; 180 mg, Week 16) was 15.0 cells/hpf, the “peak esophageal eosinophil count, Mean” value ([2]; 360 mg, Baseline) was 139.4 cells/hpf and the “peak esophageal eosinophil count, Median” value ([2]; 360 mg, Baseline) was 132.0 cells/hpf. For the same molecule, the “peak esophageal eosinophil count, Mean change” value ([2]; 360 mg) was −111.3 cells/hpf, the “peak esophageal eosinophil count, LSMD versus placebo” value ([2]; 360 mg) was −79.8 cells/hpf and the “peak esophageal eosinophil count, Mean” value ([2]; 360 mg, Week 16) was 31.3 cells/hpf. The “peak esophageal eosinophil count, Median” value ([2]; 360 mg, Week 16) was 15.0 cells/hpf, the “lowering of esophageal eosinophil counts over placebo at week 16” value ([2]; both low (180 mg) and high dose (360 mg)) was “achieved statistical significance” and the “mean EEsAI PRO at week 16” value ([3]; 180 mg and 360 mg, week 16) was “dose-dependent reduction”. The “EEsAI PRO score, Mean” value ([3]; 180 mg, Baseline) was 58.1, the “EEsAI PRO score, Median” value ([3]; 180 mg, Baseline) was 61.0 and the “EEsAI PRO score, Mean change” value ([3]; 180 mg) was −19.8. The “EEsAI PRO score, LSMD versus placebo” value ([3]; 180 mg, ANCOVA) was −4.0, the “EEsAI PRO score, Mean” value ([3]; 180 mg, Week 16) was 39.3 and the “EEsAI PRO score, Median” value ([3]; 180 mg, Week 16) was 49.0. The “EEsAI PRO score, LSMD versus placebo” value ([3]; 180 mg, non-steroid-refractory) was 4.9, the “EEsAI PRO score, Mean change” value ([3]; 180 mg, non-steroid-refractory) was −20.4 and the “EEsAI PRO score, LSMD versus placebo” value ([3]; 180 mg, steroid refractory) was −13.5. For the same molecule, the “EEsAI PRO score, Mean change” value ([3]; 180 mg, steroid refractory) was −19.1, the “EEsAI PRO score, Mean” value ([3]; 360 mg, Baseline) was 56.2 and the “EEsAI PRO score, Median” value ([3]; 360 mg, Baseline) was 58.0. The “EEsAI PRO score, Mean change” value ([3]; 360 mg) was −23.0, the “EEsAI PRO score, LSMD versus placebo” value ([3]; 360 mg, ANCOVA) was −7.2 and the “EEsAI PRO score, Mean” value ([3]; 360 mg, Week 16) was 33.2. The “EEsAI PRO score, Median” value ([3]; 360 mg, Week 16) was 30.5, the “EEsAI PRO score, LSMD versus placebo” value ([3]; 360 mg, non-steroid-refractory) was −1.2 and the “EEsAI PRO score, Mean change” value ([3]; 360 mg, non-steroid-refractory) was −25.2. The “EEsAI PRO score, LSMD versus placebo” value ([3]; 360 mg, steroid refractory) was −15.5, the “EEsAI PRO score, Mean change” value ([3]; 360 mg, steroid refractory) was −20.8 and the “mean EEsAI PRO score in the steroid refractory sub-group” value ([3]; sub-group analysis, week 16) was “statistically significant reduction”. For the same molecule, the “subject's global assessment of disease severity, Mean” value ([4]; 180 mg, Baseline) was 5.0, the “subject's global assessment of disease severity, Median” value (from here on “subject's global assessment … Median”) ([4]; 180 mg, Baseline) was 5.0 and the “subject's global assessment of disease severity, Mean change” value ([4]; 180 mg) was −2.0. For the same molecule, the “subject's global assessment of disease severity, LSMD versus placebo” value ([4]; 180 mg) was −0.9, the “subject's global assessment of disease severity, Mean” value ([4]; 180 mg, Week 16) was 2.8 and the “subject's global assessment … Median” value ([4]; 180 mg, Week 16) was 3.0. The “subject's global assessment of disease severity, Mean” value ([4]; 360 mg, Baseline) was 5.4, the “subject's global assessment … Median” value ([4]; 360 mg, Baseline) was 5.0 and the “subject's global assessment of disease severity, Mean change” value ([4]; 360 mg) was −2.8. For the same molecule, the “subject's global assessment of disease severity, LSMD versus placebo” value ([4]; 360 mg) was −1.3, the “subject's global assessment of disease severity, Mean” value ([4]; 360 mg, Week 16) was 2.5 and the “subject's global assessment … Median” value ([4]; 360 mg, Week 16) was 2.0. For the same molecule, the “subject's global assessment of disease severity at week 16 over placebo” value ([4]; treatment arm, 180 mg and 360 mg, week 16) was “dose-dependent reduction”, the “EREF total score at week 16” value [5] was “net lowering of EREF score” and the “binding to human type IL-13” value [6] was “binds to human type IL-13”. For the same molecule, the “selectivity for IL-13” value [6] was “highly selective for IL-13”, the “Number of subjects experiencing Death related to study drug” value [7, 8] was 0 n and the “Number of subjects experiencing ≥1 TEAE” value [7, 8] was 20 n. The “Number of subjects experiencing ≥1 TEAE leading to study drug d/c” value [7, 8] was 1 n, the “Number of subjects experiencing ≥1 TEAE with fatal outcome” value [7, 8] was 0 n and the “Number of subjects experiencing ≥1 moderate or severe TEAE” value [7, 8] was 7 n. The “Number of subjects experiencing ≥1 possible, probable, or related TEAE” value [7, 8] was 11 n, the “Number of subjects experiencing ≥1 related TEAE” value [7, 8] was 3 n and the “Number of subjects experiencing ≥1 related serious TEAE” value [7, 8] was 0 n. For the same molecule, the “Number of subjects experiencing ≥1 serious TEAE” value [7, 8] was 0 n, the “Number of subjects experiencing ≥1 severe TEAE” value [7, 8] was 2 n and the “Subjects experiencing ≥1 TEAE” value [7, 8] was “(64.5) %”. For the same molecule, the “Subjects experiencing ≥1 TEAE leading to study drug d/c” value [7, 8] was “(3.2) %”, the “Subjects experiencing ≥1 moderate or severe TEAE” value [7, 8] was “(22.6) %” and the “Subjects experiencing ≥1 possible, probable, or related TEAE” value [7, 8] was “(35.5) %”. For the same molecule, the “Subjects experiencing ≥1 related TEAE” value [7, 8] was “(9.7) %”, the “Subjects experiencing ≥1 severe TEAE” value [7, 8] was “(6.5) %” and the safety and tolerability ([7]; 180 mg and 360 mg, 16-week treatment) was “well-tolerated with a favorable safety profile; also recorded: generally safe and well-tolerated”. For the same molecule, the “Number of subjects experiencing Death related to study drug” value [7, 9] was 0 n, the “Number of subjects experiencing ≥1 TEAE” value [7, 9] was 29 n and the “Number of subjects experiencing ≥1 TEAE leading to study drug d/c” value [7, 9] was 3 n. For the same molecule, the “Number of subjects experiencing ≥1 TEAE with fatal outcome” value [7, 9] was 0 n, the “Number of subjects experiencing ≥1 moderate or severe TEAE” value [7, 9] was 11 n and the “Number of subjects experiencing ≥1 possible, probable, or related TEAE” value [7, 9] was 18 n. For the same molecule, the “Number of subjects experiencing ≥1 related TEAE” value [7, 9] was 5 n, the “Number of subjects experiencing ≥1 related serious TEAE” value [7, 9] was 0 n and the “Number of subjects experiencing ≥1 serious TEAE” value [7, 9] was 1 n. The “Number of subjects experiencing ≥1 severe TEAE” value [7, 9] was 2 n, the “Subjects experiencing ≥1 TEAE” value [7, 9] was “(85.3) %” and the “Subjects experiencing ≥1 TEAE leading to study drug d/c” value [7, 9] was “(8.8) %”. The “Subjects experiencing ≥1 moderate or severe TEAE” value [7, 9] was “(32.4) %”, the “Subjects experiencing ≥1 possible, probable, or related TEAE” value [7, 9] was “(52.9) %” and the “Subjects experiencing ≥1 related TEAE” value [7, 9] was “(14.7) %”. For the same molecule, the “Subjects experiencing ≥1 serious TEAE” value [7, 9] was “(2.9) %”, the “Subjects experiencing ≥1 severe TEAE” value [7, 9] was “(5.9) %” and the “most-frequently reported adverse events” value ([7]; phase 2 study) was “headache, URI, arthralgia, nasopharyngitis, sinusitis, abdominal pain and oropharyngeal pain”. The infusional hypersensitivity events ([7]; treatment groups) was “no reported instances of infusional hypersensitivity events”.
